{"source": "the RNAGym collection of RNA variant scans (doi:10.7554/elife.80360)", "parents": {"B1": {"name": "HDV Ribozyme (parent)", "chain": "GGCCGGCAUGGUCCCAGCCUCCUCGCUGGCGCCGGCUGGGCAACAUUCCGAGGGGACCGUCCCCUCGGUAAUGGCGAAUGGGACCCA"}}}
{"variants_of": "B1", "test": "self-cleavage, relative activity (ratio to wild type); higher = more cleavage; co-transcriptional"}
{"variant": "G28U A56C", "self-cleavage": 0}
{"variant": "G2C U9A", "self-cleavage": 0.0755}
{"variant": "G68C U72C", "self-cleavage": 0.38}
{"variant": "G68C A70U", "self-cleavage": 0.778}
{"variant": "G39U A87C", "self-cleavage": 0.646}
{"variant": "G29C G55U", "self-cleavage": 0.0396}
{"variant": "C44A G59C", "self-cleavage": 0.796}
{"variant": "C26U A43C", "self-cleavage": 0.831}
{"variant": "G2U U9A", "self-cleavage": 0.0237}
{"variant": "C14G C44A", "self-cleavage": 0.128}
{"variant": "U20A U65G", "self-cleavage": 0.101}
{"variant": "U9C U37A", "self-cleavage": 0.289}
{"variant": "G59U C66A", "self-cleavage": 0.904}
{"variant": "G5A G25U", "self-cleavage": 0.0339}
{"variant": "C36U C41A", "self-cleavage": 0.683}
{"variant": "U69G U72A", "self-cleavage": 0.369}
{"variant": "G40C U46C", "self-cleavage": 0.117}
{"variant": "U12C C86U", "self-cleavage": 0.578}
{"variant": "G1C G39U", "self-cleavage": 0.116}
{"variant": "G73U C85U", "self-cleavage": 0.458}
{"variant": "A45C C62G", "self-cleavage": 0.391}
{"variant": "U27G G38C", "self-cleavage": 0.0692}
{"variant": "G38C A77C", "self-cleavage": 0.177}
{"variant": "U9C A87G", "self-cleavage": 1.12}
{"variant": "A45G C85A", "self-cleavage": 1.01}
{"variant": "A16U U47G", "self-cleavage": 0.692}
{"variant": "C19G C86G", "self-cleavage": 0.104}
{"variant": "C13A G39C", "self-cleavage": 0.0554}
{"variant": "C49G", "self-cleavage": 0.905}
{"variant": "C7A C24G", "self-cleavage": 0.0415}
{"variant": "G40A G82U", "self-cleavage": 0.198}
{"variant": "C22A A56C", "self-cleavage": 0.312}
{"variant": "C41A A42U", "self-cleavage": 0.743}
{"variant": "C44U A87G", "self-cleavage": 0.554}
{"variant": "C18A G29U", "self-cleavage": 0.821}
{"variant": "C18A G29C", "self-cleavage": 0.266}
{"variant": "G31A A77G", "self-cleavage": 0.339}
{"variant": "A42G C44A", "self-cleavage": 0.536}
{"variant": "G50U G55U", "self-cleavage": 0.906}
{"variant": "G76C A87G", "self-cleavage": 1.08}
{"variant": "G38A G80C", "self-cleavage": 0.117}
{"variant": "G68U G81U", "self-cleavage": 0.197}
{"variant": "U46G G73A", "self-cleavage": 0.831}
{"variant": "G52U A77C", "self-cleavage": 0.54}
{"variant": "G10U G74C", "self-cleavage": 0.138}
{"variant": "G17A U79G", "self-cleavage": 0.388}
{"variant": "C7U G35C", "self-cleavage": 0}
{"variant": "U60C G73A", "self-cleavage": 0.815}
{"variant": "C7A G59A", "self-cleavage": 0.753}
{"variant": "C4G A83C", "self-cleavage": 0.102}
{"variant": "C36A C48A", "self-cleavage": 0.259}
{"variant": "U72C A87C", "self-cleavage": 0.597}
{"variant": "G5C G74C", "self-cleavage": 0.0978}
{"variant": "A43G C44G", "self-cleavage": 0.798}
{"variant": "U46G U47G", "self-cleavage": 0.262}
{"variant": "C14A A77C", "self-cleavage": 0.115}
{"variant": "C24G G39C", "self-cleavage": 0.18}
{"variant": "C4U G25U", "self-cleavage": 0.0287}
{"variant": "A51G U79C", "self-cleavage": 0.354}
{"variant": "C19G A45G", "self-cleavage": 0.106}
{"variant": "C58G U72G", "self-cleavage": 0.447}
{"variant": "U23G C48G", "self-cleavage": 0.361}
{"variant": "U27G G55C", "self-cleavage": 0.779}
{"variant": "C26A U65C", "self-cleavage": 1.21}
{"variant": "G1A C75G", "self-cleavage": 0.108}
{"variant": "G29A U60A", "self-cleavage": 0.101}
{"variant": "G35A C48G", "self-cleavage": 0.539}
{"variant": "G11C G73U", "self-cleavage": 0.16}
{"variant": "C62A U79G", "self-cleavage": 0.862}
{"variant": "G2A G5A", "self-cleavage": 0.0343}
{"variant": "G1U C13U", "self-cleavage": 0.326}
{"variant": "C7G G73A", "self-cleavage": 0.0639}
{"variant": "C13G C19G", "self-cleavage": 0.0791}
{"variant": "C15U G54A", "self-cleavage": 0.776}
{"variant": "G29U A83U", "self-cleavage": 0.102}
{"variant": "G31U C62A", "self-cleavage": 0.602}
{"variant": "U27C A56U", "self-cleavage": 0.674}
{"variant": "U27C A56C", "self-cleavage": 0.612}
{"variant": "C61A C84G", "self-cleavage": 0.795}
{"variant": "U9G G74C", "self-cleavage": 0.437}
{"variant": "C21U A56U", "self-cleavage": 0.3}
{"variant": "G68A", "self-cleavage": 0.952}
{"variant": "U37G U47G", "self-cleavage": 0}
{"variant": "G5U C49A", "self-cleavage": 0.415}
{"variant": "G29A A43C", "self-cleavage": 0.0978}
{"variant": "A42G C66A", "self-cleavage": 0.702}
{"variant": "C4G A87U", "self-cleavage": 0.225}
{"variant": "C14U C18A", "self-cleavage": 0}
{"variant": "U23A C41A", "self-cleavage": 1.07}
{"variant": "C18A G34U", "self-cleavage": 0.0489}
{"variant": "A51G A71G", "self-cleavage": 0.752}
{"variant": "C24U G25A", "self-cleavage": 0.181}
{"variant": "G53U G67U", "self-cleavage": 0.715}
{"variant": "G1C A70G", "self-cleavage": 0.453}
{"variant": "G40C G73A", "self-cleavage": 0.223}
{"variant": "A71U C75G", "self-cleavage": 0.0852}
{"variant": "G1C C13G", "self-cleavage": 0.0791}
{"variant": "A42G C85G", "self-cleavage": 0.522}
{"variant": "U12C G76A", "self-cleavage": 0.344}
{"variant": "G76U A87C", "self-cleavage": 1.17}
{"variant": "G11A A78C", "self-cleavage": 0.127}
{"variant": "G50C A78U", "self-cleavage": 0.131}
{"variant": "G5A C15G", "self-cleavage": 0.151}
{"variant": "G50A U72G", "self-cleavage": 0.582}
{"variant": "G39C A45G", "self-cleavage": 0.0923}
{"variant": "A70U G80U", "self-cleavage": 0.222}
{"variant": "G11U A45U", "self-cleavage": 0.217}
{"variant": "G11A G74C", "self-cleavage": 0.0723}
{"variant": "G40A G76C", "self-cleavage": 0.947}
{"variant": "G68A A71C", "self-cleavage": 0.58}
{"variant": "U69A A71C", "self-cleavage": 0.935}
{"variant": "U27C C48U", "self-cleavage": 0.604}
{"variant": "A56C G76A", "self-cleavage": 1.17}
{"variant": "C84A C86G", "self-cleavage": 0.755}
{"variant": "C15G C57A", "self-cleavage": 0.703}
{"variant": "C49G A51C", "self-cleavage": 0.623}
{"variant": "C18G U65A", "self-cleavage": 0.138}
{"variant": "G53A A56G", "self-cleavage": 0.875}
{"variant": "A43C C57G", "self-cleavage": 0.655}
{"variant": "U72C G76A", "self-cleavage": 0.962}
{"variant": "G53A A87C", "self-cleavage": 1.1}
{"variant": "C18A U37C", "self-cleavage": 0.0361}
{"variant": "C30U C49U", "self-cleavage": 0.891}
{"variant": "G38U U47C", "self-cleavage": 0.133}
{"variant": "C49G G74C", "self-cleavage": 0.192}
{"variant": "C4G G54U", "self-cleavage": 0.464}
{"variant": "G35U C49G", "self-cleavage": 0.325}
{"variant": "U27C G74U", "self-cleavage": 0.332}
{"variant": "G6C U47A", "self-cleavage": 0.0875}
{"variant": "G31U A78G", "self-cleavage": 0.0811}
{"variant": "G11U A70C", "self-cleavage": 0.0536}
{"variant": "A56U A83G", "self-cleavage": 0.876}
{"variant": "C22U G25A", "self-cleavage": 0}
{"variant": "A8G C62U", "self-cleavage": 0.95}
{"variant": "G10C G82U", "self-cleavage": 0.348}
{"variant": "G34C A71U", "self-cleavage": 0.095}
{"variant": "G6U G82U", "self-cleavage": 0}
{"variant": "G55A U79G", "self-cleavage": 0.85}
{"variant": "G50C G80A", "self-cleavage": 0.523}
{"variant": "G31C A77G", "self-cleavage": 0.306}
{"variant": "C19U C24G", "self-cleavage": 0.0475}
{"variant": "C36G U37G", "self-cleavage": 0.213}
{"variant": "G40A A70U", "self-cleavage": 0.868}
{"variant": "C22U G67C", "self-cleavage": 0.535}
{"variant": "A45G C48A", "self-cleavage": 1.27}
{"variant": "C30G C66U", "self-cleavage": 0.185}
{"variant": "C41U C64U", "self-cleavage": 0.892}
{"variant": "C41U C44G", "self-cleavage": 0.492}
{"variant": "G5U G6A", "self-cleavage": 0.208}
{"variant": "C22U G28C", "self-cleavage": 0}
{"variant": "C75G G81A", "self-cleavage": 0.0332}
{"variant": "G31C G76C", "self-cleavage": 0.609}
{"variant": "C22A G81A", "self-cleavage": 0.205}
{"variant": "G38A C85A", "self-cleavage": 0.104}
{"variant": "C24U A51C", "self-cleavage": 0.767}
{"variant": "G6A U72A", "self-cleavage": 0.0875}
{"variant": "C15A A56U", "self-cleavage": 0.743}
{"variant": "C30U G82A", "self-cleavage": 0.229}
{"variant": "C4A C75A", "self-cleavage": 0.157}
{"variant": "U46A C57G", "self-cleavage": 0.617}
{"variant": "A8U G17A", "self-cleavage": 0.665}
{"variant": "A71U U72A", "self-cleavage": 0.969}
{"variant": "C49G G82C", "self-cleavage": 0.16}
{"variant": "C18A C48G", "self-cleavage": 0.102}
{"variant": "U46A C61A", "self-cleavage": 0.8}
{"variant": "G25U U60G", "self-cleavage": 0.229}
{"variant": "C13G U37A", "self-cleavage": 0.17}
